Source: patent US20040171074A1, “Structures of substrate binding pockets of SCF complexes” (MOUNT SINAI HOSPITAL, priority 2002, published 2004)
Non-standard residues stand in square brackets, D forms with d. pT = C[C@@H](OP(=O)(O)O)[C@H](N)C(=O)O

T1: Cdc4 (Saccharomyces cerevisiae, UniProt P07834)
T1 sequence (P07834 1-779): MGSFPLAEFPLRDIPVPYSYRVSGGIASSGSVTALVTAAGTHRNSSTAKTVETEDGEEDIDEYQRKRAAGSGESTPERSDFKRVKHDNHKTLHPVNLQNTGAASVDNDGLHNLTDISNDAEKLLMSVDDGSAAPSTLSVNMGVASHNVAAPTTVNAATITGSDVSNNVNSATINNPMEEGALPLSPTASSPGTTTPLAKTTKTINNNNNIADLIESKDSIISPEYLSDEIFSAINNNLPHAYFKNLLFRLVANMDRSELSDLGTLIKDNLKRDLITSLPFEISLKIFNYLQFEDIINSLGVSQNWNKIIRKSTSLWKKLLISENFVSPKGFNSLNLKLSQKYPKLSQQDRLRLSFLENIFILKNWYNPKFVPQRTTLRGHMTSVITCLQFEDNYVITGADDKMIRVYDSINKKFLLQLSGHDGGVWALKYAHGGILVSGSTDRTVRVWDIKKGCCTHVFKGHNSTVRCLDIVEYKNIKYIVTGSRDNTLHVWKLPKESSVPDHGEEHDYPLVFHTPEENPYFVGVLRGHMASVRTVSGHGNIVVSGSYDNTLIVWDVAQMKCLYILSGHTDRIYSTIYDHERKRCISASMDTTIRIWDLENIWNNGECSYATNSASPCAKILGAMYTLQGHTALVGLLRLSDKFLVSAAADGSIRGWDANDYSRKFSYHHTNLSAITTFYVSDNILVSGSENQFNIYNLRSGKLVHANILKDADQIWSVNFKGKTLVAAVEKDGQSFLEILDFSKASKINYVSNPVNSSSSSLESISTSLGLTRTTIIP

T2: phospho-Sic1 isoforms (Saccharomyces cerevisiae, UniProt P38634)
T2 construct: His6 (N); made in house; host or cells: bacteria (Sic1, Cdc4-GST-Skp1); insect cells (Cdc53-Rbx1)
T2 sequence (P38634 1-284): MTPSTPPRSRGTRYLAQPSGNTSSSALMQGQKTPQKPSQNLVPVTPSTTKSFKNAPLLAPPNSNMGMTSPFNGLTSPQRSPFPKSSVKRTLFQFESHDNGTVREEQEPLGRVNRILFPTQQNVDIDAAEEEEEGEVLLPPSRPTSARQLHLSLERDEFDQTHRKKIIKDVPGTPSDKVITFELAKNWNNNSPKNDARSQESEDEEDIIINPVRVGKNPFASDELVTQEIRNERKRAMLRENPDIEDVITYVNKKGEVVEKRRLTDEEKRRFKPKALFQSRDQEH


Assays:
Cdc4 = molecular target: T1, Cdc4; conditions: cyclin E derived nine-residue CPD phosphopeptide binding Cdc4 (Nash et al., 2001); cited from earlier work
phospho-Sic1 = experiment: P-Sic1 pull down: in vitro capture of phospho-Sic1 on immobilized wild type or mutant Cdc4-GST-Skp1, anti-Sic1 immunoblot; format: binding, yeast; conditions: Sic1 phosphorylated with Cln2-Cdc28, captured onto GST-Skp1/Cdc4 resin, anti-Sic1 detection
Method in brief: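 Bacterial His6-Sic1 phosphorylated by Cln2-Cdc28 from Sf9 cells; 0.5 μg phospho-Sic1 incubated with 1 μg immobilized wild-type or mutant Cdc4(263-744)-GST-Skp1 at 4° C for 1 h, washed four times. Bound Sic1 detected by anti-Sic1 immunoblot after SDS-PAGE.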

cdc4Δ strain = experiment: plasmid shuffle assay: complementation of a cdc4Δ strain by CDC4 alleles; format: cell-based, yeast; conditions: viability of cdc4Δ strain on 5-FOA, 2 days at 30° C.
Method in brief: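 Mutant CDC4 alleles on TRP1 CEN plasmids were shuffled into cdc4Δ strain MT 1259 carrying wild-type CDC4 on a URA3 plasmid, with growth on 5-FOA for 2 days at 30° C. Survivors were transformed with GAL1-SIC1 or phosphosite mutants and plated on glucose or galactose, 2 days at 30° C.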

[1] = system: cdc4Δ strain overexpressing SIC1; experiment: sensitivity to SIC1 dosage: GAL1-SIC1 overexpression in strains bearing CDC4 alleles; format: cell-based, yeast; conditions: galactose, 2 days at 30° C.; for gal Sic1T33V: GAL1-SIC1 T33V (partially stabilized Sic1); for gal Sic1T45A: GAL1-SIC1 T45A; for gal Sic1 wt: GAL1-SIC1 wild type
Description: Mutational analysis of the CPD binding surface. Mutants were tested in vitro by ability to bind phosphorylated Sic1 and then captured onto GST-Skp1/Cdc4 resin and detected with anti-sic1 antibody. Mutants were tested in vivo by ability to degrade GAL1-SIC1 or various phosphorylation mutants. Sites are as follows: 3=Thr 33, Thr 45, Ser 76; 4=Thr 5, Thr 33, Thr 45, Ser 76; 5=Thr 2, Thr 5, Thr 33, Thr 45, Ser 76; 6=Thr 2, Thr 5, Thr 33, Thr 45, Ser 69, Ser 76; 7=Thr 2, Thr 5, Thr 33, Thr 45, Ser 69, Ser 76, Ser 80. GAL1-SIC1 plasmids were transformed into a cdc4Δ strain containing a copy of CDC4 on a TRP1 ARS CEN plasmid. Strains were incubated for 2 days at 30° C.
All mutants on a TRP1 ARS CEN plasmid were transformed into a cdc4Δ strain (MT 1259) containing a wildtype copy of CDC4 on a URA3 ARS CEN plasmid. Cells were plated on either Trp^−Ura^− or 5-FOA medium for 2 days at 30° C. Viable cells on 5-FOA were grown in Trp medium and transformed with either wild type GAL1-SIC1, GAL1-SIC T45A, or GAL1-SIC T33V on a LEU2 ARS CEN pasmid. Cells were then plated on Leu- Trp-plates containing either glucose or galactose and incubated for 2 days at 30° C.
Since the cell viability assay nay be masking subtle functional roles for the conserved Cdc4 residues, function was assayed in vivo under more stringent conditions in which Sic1 wt or the stabilized mutants, Sic1 (T33V) or Sic1(T45A) are over-expressed under a galactose promoter. This should amplify defects in cdc4 function. Under these conditions, Trp 717, Tyr 548 and the double mutant K404D/R443D are lethal showing that these residues are in fact important for functions
Cdc4 functional assays. CDC4 mutant alleles were assessed for complementation of a cdc4A strain in a plasmid shuffle assay (Nash et al., 2001). Sensitivity to SIC1 dosage was determined by transformation with pMT837 (GAL1-SIC1) or pMT767 (GAL1-SIC1^T33V) and plating on glucose medium or galactose medium. For in vitro capture of phospho-Sic1 by Cdc4, 0.5 μg of bacterially-expressed ^HIS6Sic1 was phosphorylated with immobilized Cln2-Cdc28 kinase from baculovirus-infected Sf9 cells and then incubated with 1 μg of immobilized wild type or mutant Cdc4^263-744-GST-Skp1, at 4° C. for 1 hr, washed 4 times and visualized by anti-Sic1 immunoblot. For isoelectric focusing (IEF)-2D gel analyses, an evenly distributed pool of phospho-Sic1 isoforms was generated by combining different time points in a Sic1 phosphorylation reaction. 2.5 μg of the phospho-Sic1 pool was bound to 5 μg of immobilized wild type or mutant Cdc4^1-744-GST-Skp1. Captured isoforms were separated by denaturing IEF-2D gel electrophoresis using pH3-10NL Immobiline gel strips (Amersham) and visualized by anti-Sic1 immunoblot. Alternatively, the pool of phospho-Sic1 isoforms was incubated in solution with a ubiquitination reaction mix containing ATP, ubiquitin, yeast E1, Cdc34 and either wild type or mutant SCF^Cdc4 complex, composed of a 1:1 ratio of bacterial Cdc4-GST-Skp1 and insect cell-produced Cdc53-Rbx1, at 30° C. for 1 h as previously described (Nash et al., 2001).

phospho-Sic1 isoforms [2] = experiment: IEF-2D gel analysis of Sic1 phospho-isoforms captured by wild type or mutant Cdc4-GST-Skp1; format: binding, yeast; conditions: pool of Sic1 phosphorylated on 1 to 9 sites
Description: Bacterially expressed His6-Sic1 was phosphorylated with Cln2-Cdc28 kinase purified from baculovirus infected Sf9 cells as described before (Nature paper). 1 ug of WT or mutant Cdc4-GST-Skp1, immoblized on GSH-Sepharose resin, was incubated with 0.5 ug phospho-Sic1 at 4 C for 1 h and washed 4 times. Captured complexes were resolved on SDS-PAGE and Sic1 visualized by anti-Sic1 Western blotting and ECL. For IEF-2D analysis, several Sic1 phosphorylation reactions were carried out for different time periods to obtain a spectrum of Sic1 that were phosphorylated at different numbers of its nine CDK sites. This pool of phospho-Sic1 (2.5 ug) was incubated with 5 μg of WT or mutant Cdc4-GST-Skp1 as described above. Different phosphorylation states of Sic1 were separated by denaturing isoelectric focusing (IEF)-2D gel electrophoresis and visualized by anti-Sic1 Western blotting and ECL. IEF was performed using pH 3-10NL Immobiline gel strips and IPGphore IEF system (Amersham pharmacia).
Cdc4 functional assays. CDC4 mutant alleles were assessed for complementation of a cdc4A strain in a plasmid shuffle assay (Nash et al., 2001). Sensitivity to SIC1 dosage was determined by transformation with pMT837 (GAL1-SIC1) or pMT767 (GAL1-SIC1^T33V) and plating on glucose medium or galactose medium. […]

phospho-Sic1 isoforms [3] = molecular target: T2, phospho-Sic1 isoforms; experiment: in vitro ubiquitination of phospho-Sic1 isoforms by wild type or mutant SCFCdc4 complex; format: biochemical, yeast; conditions: Cdc34, ubiquitin, ATP, 1 h at 30° C.

Molecule | Kd (Cdc4) [µM] | P-Sic1 pull down (phospho-Sic1) | P-Sic1 pull down (phospho-Sic1; listed as V384N/W717N) | shuffle (cdc4Δ strain) | shuffle (cdc4Δ strain; listed as V384N/W717N) | gal Sic1T33V [1] | gal Sic1T45A [1] | gal Sic1 wt [1] | Sic1 phospho-isoforms captured (number of phosphorylated sites) (phospho-Sic1 isoforms [2]) | Sic1 phospho-isoforms captured (number of phosphorylated sites) (phospho-Sic1 isoforms [2]; listed as Wild type Cdc4) | conversion of Sic1 phosphorylated on four or five sites to oligo-ubiquitinated species (phospho-Sic1 isoforms [3])
Ac-GLL[pT]PPQSG-NH2 [CPD phosphopeptide] | 1 |  |  |  |  |  |  |  |  |  | 
W717N/V384N: double mutant cdc4 polypeptide compromised for selection at P−1 (protein) MGSFPLAEFPLRDIPVPYSYRVSGGIASSGSVTALVTAAGTHRNSSTAKTVETEDGEEDIDEYQRKRAAGSGESTPERSDFKRVKHDNHKTLHPVNLQNTGAASVDNDGLHNLTDISNDAEKLLMSVDDGSAAPSTLSVNMGVASHNVAAPTTVNAATITGSDVSNNVNSATINNPMEEGALPLSPTASSPGTTTPLAKTTKTINNNNNIADLIESKDSIISPEYLSDEIFSAINNNLPHAYFKNLLFRLVANMDRSELSDLGTLIKDNLKRDLITSLPFEISLKIFNYLQFEDIINSLGVSQNWNKIIRKSTSLWKKLLISENFVSPKGFNSLNLKLSQKYPKLSQQDRLRLSFLENIFILKNWYNPKFVPQRTTLRGHMTSNITCLQFEDNYVITGADDKMIRVYDSINKKFLLQLSGHDGGVWALKYAHGGILVSGSTDRTVRVWDIKKGCCTHVFKGHNSTVRCLDIVEYKNIKYIVTGSRDNTLHVWKLPKESSVPDHGEEHDYPLVFHTPEENPYFVGVLRGHMASVRTVSGHGNIVVSGSYDNTLIVWDVAQMKCLYILSGHTDRIYSTIYDHERKRCISASMDTTIRIWDLENIWNNGECSYATNSASPCAKILGAMYTLQGHTALVGLLRLSDKFLVSAAADGSIRGWDANDYSRKFSYHHTNLSAITTFYVSDNILVSGSENQFNIYNLRSGKLVHANILKDADQINSVNFKGKTLVAAVEKDGQSFLEILDFSKASKINYVSNPVNSSSSSLESISTSLGLTRTTIIP |  | bind | fully competent | alive | viable | dead | dead | alive | as few as four |  | 
WT: wild type yeast Cdc4 F-box protein (protein, UniProt P07834 1-779, looked up) Cell division control protein …: MGSFPLAEFPLRDIPVPYSYRVSGGIASSGSVTALVTAAGTHRNSSTAKTVETEDGEEDIDEYQRKRAAGSGESTPERSDFKRVKHDNHKTLHPVNLQNTGAASVDNDGLHNLTDISNDAEKLLMSVDDGSAAPSTLSVNMGVASHNVAAPTTVNAATITGSDVSNNVNSATINNPMEEGALPLSPTASSPGTTTPLAKTTKTINNNNNIADLIESKDSIISPEYLSDEIFSAINNNLPHAYFKNLLFRLVANMDRSELSDLGTLIKDNLKRDLITSLPFEISLKIFNYLQFEDIINSLGVSQNWNKIIRKSTSLWKKLLISENFVSPKGFNSLNLKLSQKYPKLSQQDRLRLSFLENIFILKNWYNPKFVPQRTTLRGHMTSVITCLQFEDNYVITGADDKMIRVYDSINKKFLLQLSGHDGGVWALKYAHGGILVSGSTDRTVRVWDIKKGCCTHVFKGHNSTVRCLDIVEYKNIKYIVTGSRDNTLHVWKLPKESSVPDHGEEHDYPLVFHTPEENPYFVGVLRGHMASVRTVSGHGNIVVSGSYDNTLIVWDVAQMKCLYILSGHTDRIYSTIYDHERKRCISASMDTTIRIWDLENIWNNGECSYATNSASPCAKILGAMYTLQGHTALVGLLRLSDKFLVSAAADGSIRGWDANDYSRKFSYHHTNLSAITTFYVSDNILVSGSENQFNIYNLRSGKLVHANILKDADQIWSVNFKGKTLVAAVEKDGQSFLEILDFSKASKINYVSNPVNSSSSSLESISTSLGLTRTTIIP |  | bind |  | alive |  | alive | dead | alive |  | six or more sites | unable
